Measured values taken from IntAct's records for PubMed 32852592.

B1: Mitogen-activated protein kinase 13 (Homo sapiens), O15264 (parent)
chain: MSLIRKKGFYKQDVNKTAWELPKTYVSPTHVGSGAYGSVCSAIDKRSGEKVAIKKLSRPFQSEIFAKRAYRELLLLKHMQHENVIGLLDVFTPASSLRNFYDFYLVMPFMQTDLQKIMGMEFSEEKIQYLVYQMLKGLKYIHSAGVVHRDLKPGNLAVNEDCELKILDFGLARHADAEMTGYVVTRWYRAPEVILSWMHYNQTVDIWSVGCIMAEMLTGKTLFKGKDYLDQLTQILKVTGVPGTEFVQKLNDKAAKSYIQSLPQTPRKDFTQLFPRASPQAADLLEKMLELDVDKRLTAAQALTHPFFEPFRDPEEETEAQQPFDDSLEHEKLTVDEWKQHIYKEIVNFSPIARKDSRRRSGMKL

Variants of: B1
Conditions: with stat3_human STAT3, P40763
stat3_human STAT3, P40763, sequence (P40763 whole entry): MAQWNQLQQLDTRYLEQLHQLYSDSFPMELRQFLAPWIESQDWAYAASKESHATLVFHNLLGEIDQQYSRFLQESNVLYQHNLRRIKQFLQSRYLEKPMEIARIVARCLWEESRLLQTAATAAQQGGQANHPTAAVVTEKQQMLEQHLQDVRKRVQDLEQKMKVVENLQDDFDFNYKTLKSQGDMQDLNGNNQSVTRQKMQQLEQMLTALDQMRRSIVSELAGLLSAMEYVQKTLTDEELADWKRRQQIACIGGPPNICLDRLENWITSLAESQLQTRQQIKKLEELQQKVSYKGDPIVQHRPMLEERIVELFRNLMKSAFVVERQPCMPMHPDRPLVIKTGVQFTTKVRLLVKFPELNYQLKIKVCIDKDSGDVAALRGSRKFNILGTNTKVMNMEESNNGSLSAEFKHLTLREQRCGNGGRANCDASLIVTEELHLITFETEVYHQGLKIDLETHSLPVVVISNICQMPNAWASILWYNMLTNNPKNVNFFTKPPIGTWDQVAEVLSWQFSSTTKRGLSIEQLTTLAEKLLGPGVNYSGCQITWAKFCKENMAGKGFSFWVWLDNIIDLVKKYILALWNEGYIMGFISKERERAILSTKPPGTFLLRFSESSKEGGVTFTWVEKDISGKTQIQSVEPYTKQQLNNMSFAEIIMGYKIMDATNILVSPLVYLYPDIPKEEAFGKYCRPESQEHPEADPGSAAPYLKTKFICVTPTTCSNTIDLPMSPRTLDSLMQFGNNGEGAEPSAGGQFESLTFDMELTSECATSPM

Row | effect of a mutation on the interaction | Variant
1 | with no effect | MSLIRKKGFYKQDVNKTAWELPKTYVSPTHVGSGAYGSVCSAIDKRSGEKVAIKKLSRPFQSEIFAKRAYRELLLLKHMQHENVIGLLDVFTPASSLRNFYDFYLVMPFMQTDLQKIMGMEFSEEKIQYLVYQMLKGLKYIHSAGVVHRDLKPGNLAVNEDCELKILDFGLARHADAEMAGAVVTRWYRAPEVILSWMHYNQTVDIWSVGCIMAEMLTGKTLFKGKDYLDQLTQILKVTGVPGTEFVQKLNDKAAKSYIQSLPQTPRKDFTQLFPRASPQAADLLEKMLELDVDKRLTAAQALTHPFFEPFRDPEEETEAQQPFDDSLEHEKLTVDEWKQHIYKEIVNFSPIARKDSRRRSGMKL [T180A;Y182A]
